In FireProtDB (doi:10.1002/prot.340090203):
“And” between values parts separate entries of the source, which are not always exact repeats. Identical values can stand only once.

B1: Tryptophan synthase alpha chain, P0A877 (parent)
chain: MERYESLFAQLKERKEGAFVPFVTLGDPGIEQSLKIIDTLIEAGADALELGIPFSDPLADGPTIQNATLRAFAAGVTPAQCFEMLALIRQKHPTIPIGLLMYANLVFNKGIDEFYAQCEKVGVDSVLVADVPVEESAPFRQAALRHNVAPIFICPPNADDDLLRQIASYGRGYTYLLSRAGVTGAENRAALPLNHLVAKLKEYNAAPPLQGFGISAPDQVKAAIDAGAAGAISGSAIVKIIEQHINEPEKMLAALKVFVQPMKAATRS

Variants of: B1
Details: Escherichia coli (strain K12), reversible: yes, structure 1WQ5, whole UniProt chain shown
[1] = pH 9, 54.1 °C, Thermal, DSC, Sodium tetraborate 1 mM, EDTA 1 mM
[2] = pH 9, Thermal, DSC, Sodium tetraborate 1 mM
[3] = pH 7, 25 °C, GdnHCl, CD, Potassium phosphate 10 mM
[4] = pH 7, 25 °C, GdnHCl, CD, Potassium phosphate 10 mM, transition: 3

Variant	ddG of mutation (higher = less stable) [1]	heat capacity change of unfolding [1]	Tm [2]	change of melting temperature, mutant - wild type (higher = more stable) [2]	heat capacity change of unfolding [2]	unfolding enthalpy (calorimetric) [2]	ddG of mutation (higher = less stable) [3]	unfolding free energy [3]	unfolding free energy [4]	ddG of mutation (higher = less stable) [4]
P132A	0.92 kcal/mol	4.8 kcal/mol/K	51.5 °C	-2.6 °C	4.8 kcal/mol/K	121 kcal/mol				
P132G	0.78 kcal/mol	5.1 kcal/mol/K	51.8 °C	-2.3 °C	5.1 kcal/mol/K	117 kcal/mol	0.6 kcal/mol	8.2 kcal/mol	3.6 kcal/mol and 4.6 kcal/mol	
P207A			47.4 °C	-6.7 °C	4.9 kcal/mol/K	95 kcal/mol	1.8 kcal/mol	7 kcal/mol	2.4 kcal/mol	2.2 kcal/mol
P62A	0.52 kcal/mol	4.9 kcal/mol/K								
P57A	0.04 kcal/mol	4.7 kcal/mol/K	54 °C	-0.1 °C	4.7 kcal/mol/K	121 kcal/mol				
P28A							2.5 kcal/mol	6.3 kcal/mol	2.2 kcal/mol and 4.1 kcal/mol	
P28G							1.6 kcal/mol	7.2 kcal/mol	2.3 kcal/mol and 4.9 kcal/mol	
P96A	2 kcal/mol	3.6 kcal/mol/K	47.8 °C	-6.3 °C	3.6 kcal/mol/K	113 kcal/mol				
